PMC12441119 (Cell Discovery, 2025)

What was measured:
Conditions in all cases: both partners purified
[1] = target: T1, STK4 (residues 1–487) K59R (human, UniProt Q13043 1-487, K59R); assay: ITC; MicroCal PEAQ-ITC, 25 °C; 20 mM Tris-HCl pH 7.5, 100 mM NaCl, 1 mM DTT; ~50 μM in the cell, ~500 μM in the syringe; one-site binding model
T1 construct: The tag could be cut by HRV 3C protease 'if desired'; also called kinase-dead full-length STK4; MST1; source: E. coli BL21 (DE3), purified (Ni-NTA, SEC)
T1 sequence (looked up): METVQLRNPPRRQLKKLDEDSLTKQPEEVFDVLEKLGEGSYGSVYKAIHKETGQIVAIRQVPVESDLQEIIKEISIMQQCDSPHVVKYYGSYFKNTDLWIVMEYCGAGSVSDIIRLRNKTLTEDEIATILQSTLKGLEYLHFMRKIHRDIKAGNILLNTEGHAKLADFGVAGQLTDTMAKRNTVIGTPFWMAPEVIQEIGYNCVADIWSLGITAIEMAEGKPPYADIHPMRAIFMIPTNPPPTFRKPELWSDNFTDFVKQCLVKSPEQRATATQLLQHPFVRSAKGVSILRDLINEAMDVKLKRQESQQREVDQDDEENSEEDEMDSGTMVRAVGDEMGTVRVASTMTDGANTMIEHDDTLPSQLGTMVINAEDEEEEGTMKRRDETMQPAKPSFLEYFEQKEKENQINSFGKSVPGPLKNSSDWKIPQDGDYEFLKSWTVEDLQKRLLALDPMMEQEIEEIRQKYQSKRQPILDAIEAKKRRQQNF

[2] = target: T2, STK4 (residues 11–326) K59R (human, UniProt Q13043 11-326, K59R); assay: as above
T2 construct: Monomer-dimer equilibrium in solution; dimer in the crystal; also called STK4 KD; source: E. coli BL21 (DE3), purified (Ni-NTA, SEC)
T2 sequence (looked up): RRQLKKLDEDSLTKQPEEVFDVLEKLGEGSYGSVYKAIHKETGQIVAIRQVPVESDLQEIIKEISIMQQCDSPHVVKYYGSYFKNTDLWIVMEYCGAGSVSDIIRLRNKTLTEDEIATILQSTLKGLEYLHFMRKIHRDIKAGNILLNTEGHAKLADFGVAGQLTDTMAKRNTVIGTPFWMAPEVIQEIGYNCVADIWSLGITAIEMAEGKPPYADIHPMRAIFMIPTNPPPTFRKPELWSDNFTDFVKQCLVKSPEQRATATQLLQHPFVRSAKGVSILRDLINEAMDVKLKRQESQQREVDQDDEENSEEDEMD

[3] = target: T3, STK4 (residues 1–326) K59R (human, UniProt Q13043 1-326, K59R); assay: SEC; each protein alone and the mixture at matched concentrations on Superdex 200 Increase 10/300 GL or Superdex 75 Increase 10/300 GL; a forward shift or increase of the peak read qualitatively; fractions on SDS-PAGE (Fig. 1c: 20 μM HOIP RING2-LDD, 30 μM STK4 KD, Superdex 75 Increase)
T3 construct: also called KD; source: E. coli BL21 (DE3), purified (Ni-NTA, SEC)
T3 sequence (looked up): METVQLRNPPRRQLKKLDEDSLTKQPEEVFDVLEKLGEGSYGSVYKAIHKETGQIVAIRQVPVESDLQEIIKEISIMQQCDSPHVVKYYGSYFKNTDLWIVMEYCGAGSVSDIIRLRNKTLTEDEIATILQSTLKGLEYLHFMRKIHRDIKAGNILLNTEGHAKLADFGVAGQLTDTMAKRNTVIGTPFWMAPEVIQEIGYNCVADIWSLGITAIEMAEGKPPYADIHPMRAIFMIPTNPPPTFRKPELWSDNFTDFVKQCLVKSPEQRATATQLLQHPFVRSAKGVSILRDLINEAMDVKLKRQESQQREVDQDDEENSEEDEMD

Measured: binding result

B1: HOIP (residues 854–1072) (domain or fragment, UniProt Q96EP0 854-1072, looked up)
chain: EYQAQGLAMYLQENGIDCPKCKFSYALARGGCMHFHCTQCRHQFCSGCYNAFYAKNKCPEPNCRVKKSLHGHHPRDCLFYLRDWTALRLQKLLQDNNVMFNTEPPAGARAVPGGGCRVIEQKEVPNGLRDEACGKETPAGYAGLCQAHYKEYLVSLINAHSLDPATLYEVEELETATERYLHVRPQPLAGEDPPAYQARLLQKLTEEVPLGQSIPRRRK
notes: also called HOIP RING2-LDD; source: E. coli BL21 (DE3), purified (glutathione resin, SEC)
binds: all assays above
